The source of these data is patent publication US20120244131.

For this data set, the system named is T1, SC_RAG single-chain meganuclease (I-CreI derived) (artificial sequence).
T1 sequence: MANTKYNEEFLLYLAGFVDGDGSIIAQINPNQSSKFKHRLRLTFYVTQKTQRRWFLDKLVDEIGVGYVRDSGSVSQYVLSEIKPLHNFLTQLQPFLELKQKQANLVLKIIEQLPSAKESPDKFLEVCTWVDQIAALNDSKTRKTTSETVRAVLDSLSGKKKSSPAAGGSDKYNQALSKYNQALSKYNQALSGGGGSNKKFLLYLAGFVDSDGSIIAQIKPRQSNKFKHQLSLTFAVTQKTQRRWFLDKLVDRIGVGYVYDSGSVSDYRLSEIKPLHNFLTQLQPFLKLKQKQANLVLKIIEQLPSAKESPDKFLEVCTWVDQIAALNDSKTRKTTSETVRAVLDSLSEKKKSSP
Nature of the data set: cell_activity. The note with it: endogenous locus in 293H, siRNA control AS, deep sequencing, +/-0.13.

“endogenous human RAG1 locus target of SC_RAG” came in with an activity (% NHEJ mutagenesis) of 0.66.
